Results published in US20180201657A1.

Key:
[1] = molecular target: CD4-TM:CaMbp(M2):TEVcs:Gal4 (without LOV domain) (UniProt P04386); test: cell-based or functional assay
[2] = molecular target: CD4-TM:CaMbp(M2):LOV:TEVcs(high affinity):Gal4 (original LOV2) (Avena sativa); test: cell-based or functional assay
[3] = molecular target: CD4-TM:CaMbp(M2):eLOV:TEVcs(high affinity):Gal4 (Avena sativa); test: cell-based or functional assay
[4] = molecular target: FLARE transcription factor component as used in cultured neurons (Neurexin-3b-derived TM, soma targe (Avena sativa)); test: cell-based or functional assay
[5] = molecular target: Aga2p-HA-eLOV-TEVcs(ENLYFQY)-FLAG displayed on yeast (UniProt P32781)

CD4-TM:CaMbp(M2):eLOV:TEVcs(high affinity):Gal4 (Avena sativa), sequence (Q2QYY8 other isoform, or with tags, fused parts or gaps): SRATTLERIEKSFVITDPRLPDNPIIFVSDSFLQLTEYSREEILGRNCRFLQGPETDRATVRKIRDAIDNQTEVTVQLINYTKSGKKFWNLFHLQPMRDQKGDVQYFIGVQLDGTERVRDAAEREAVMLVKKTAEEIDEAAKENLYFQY

Substance: CaM-TEV(truncated) (from UniProt P04517 2038-2256)
- high/low Ca^2+ S/N (reporter expression, HEK cells) [1]: 2
- high/low Ca^2+ S/N (reporter expression, HEK cells) [2]: 5
- light/dark S/N (reporter expression, HEK cells) [2]: 2
- high/low Ca^2+ S/N (reporter expression, HEK cells) [3]: 16
- light/dark S/N (reporter expression, HEK cells) [3]: 23

Substance: FLARE protease component as used in cultured neurons (CaM-TEV) (from UniProt P04517 2038-2256)
- S/N with versus without neuronal activity (mCherry, field stimulation with blue light, 8 minutes) [4]: 11
- light/dark S/N (mCherry reporter, cultured neurons, field stimulation, FIG. 10D) [4]: 17
- light/dark S/N (mCherry reporter, cultured neurons, media change, FIG. 10C) [4]: 121
- mCherry signal with stimulation against light exposed/non-stimulated neurons [4]: > 10 fold

Substance: MBP-TEV(S219V) fusion, purified
- anti-Flag/anti-HA staining of yeast after TEV protease treatment in the dark (FACS) [5]: Evolved LOV displays superior protection of TEVcs against TEV cleavage in the dark state
